Consider seven compounds from patent EP4772523A1, “D-PEPTIDE AND USE THEREOF” (HIROSAKI UNIVERSITY, priority 2023, dated 2025).

*1 amine or outer side, *2 acyl side, *3 side chain or, on linkers, in order; H or OH if unused. Where a SMILES comes first, the peptide text is derived from it. Where no end group is shown, it is not given here. [ ]: non-standard residue; d: D form. The star is where a group is joined. Dolaproine = CO[C@@H]([C@@H]1CCCN1)[C@@H](C)C(=O)O; Hexanoyl(6-maleimido) = O=C1C=CC(=O)N1CCCCCC(=O)*; Dil = CC[C@H](C)[C@H](NC)[C@@H](CC(=O)O)OC; PABC = O=C(OCc1ccc(N[*:1])cc1)[*:2]; X1 = C[C@@H](N*)[C@@H](O)c1ccccc1; Cit = NC(=O)NCCC[C@H](N)C(=O)O; NMeV = CN[C@H](C(=O)O)C(C)C

One may read the Kd as the free concentration of one partner at which half of the binding sites on the other are occupied at equilibrium, for simple one-to-one binding. Low readings indicate a tighter complex, high ones a looser complex.

In data set [1] the target is L-MC16 (L-amino acid MC16 peptide, 15 N-terminal residues of annexin A1) (human or mouse ANXA1 ("such as human ANXA1 or mouse ANXA1")). Briefly: BLI (Octet K2), biotinylated D-peptide on SSA biosensor, L-MC16 as analyte, 37°C, 1:1 model. A general note: BLI is a label-free optical method that tracks binding on a fibre tip over time.
A short description of data set [2]: State of dissolution in physiological saline at dosing concentration. The following applies: dosing solutions: ^10BSH 1.25 mg/25 g mouse, ^10BSH-vc-dhp7 8.25 mg/25 g mouse, IF7-^10BSH 10.08 mg/25 g mouse. The class given is physicochemical. The source says:
Thus, it was shown that ^10BSH-vc-dhp7 is more soluble and more flexible in designing the dosage form than IF7-^10BSH.

Data set [3] concerns human head and neck cancer cells SAS and human osteosarcoma cancer cells MG-63. The following applies: mouse, in vivo.
Data set [4] has as its system PC3-PSMA-/ANXA1- and PC3-PSMA+/ANXA1+. The following applies: mouse, in vivo, ip, 28.7 mg/kg. The source says:
Further, variation in accumulation depending on the tumor size was examined. […] Tumor accumulation was examined in the same manner as above (FIG. 22).

Data set [5] relates to PSMA-negative/ANXA1-negative human prostate cancer cells PC3 and PSMA-positive/ANXA1-positive PC3 cells. Briefly: Anticancer treatment in back subcutaneous PC3 tumor model. Conditions: 0.919 mg/kg, post-treatment. The class given is in vivo, nude mice. Here is the method:
1 × 10^6 PSMA-negative/ANXA1-negative human prostate cancer cells PC3 were inoculated into the left back of nude mice, and 1 × 10^6 PSMA-positive/ANXA1-positive PC3 cells were inoculated into the right back of the nude mice. […] As control, 0.919 mg/kg (22.975 ng vcMMAE/25 g mouse) of vcMMAE alone (molecular weight: 1316.6) was administered. The tumor size was monitored by measuring the average radiance (photon/sec/cm^2/sr) of the luciferase-expressing tumor after injection of luciferin (150 mg/mouse) using an IVIS system. After three courses of administration, the tumor size, body weight, pathological test, blood biochemical test, and blood cell count test values were evaluated (FIG. 41).

Data set [6] has the same test system. Briefly: Anticancer treatment in femur subcutaneous PC3 tumor model. The class given is in vivo, nude mice. The following applies: vcMMAE-dhp7 1.25 mg/kg or vcMMAE 0.919 mg/kg intraperitoneal every four days, three courses; femur tumors. The protocol: As control, 0.919 mg/kg (22.975 ng vcMMAE/25 g mouse) of vcMMAE alone (molecular weight: 1316.6) was administered. The tumor size was monitored by measuring the average radiance (photon/sec/cm^2/sr) of the luciferase-expressing tumor after injection of luciferin (150 mg/mouse using an IVIS system. After three courses of administration, the average radiance of the luciferase-expressing tumor and the body weight were evaluated (FIG. 46).

For data set [7], the system named is PSMA-positive/ANXA1-positive PC3 cells. The data set is described as follows: Anticancer treatment in femur PC3 tumor model at same vcMMAE dose. The class given is in vivo, mice. The following applies: vcMMAE-dhp7 2.14 mg/kg or vcMMAE 1.25 mg/kg intraperitoneal every four days, four courses. The protocol: 2 × 10^6 PSMA-positive/ANXA1-positive PC3 cells were inoculated into the right femur. […] As control, 1.25 mg/kg (31.25 ng vcMMAE/25 g mouse) of vcMMAE alone (molecular weight: 1316.6) was administered. The tumor size was monitored by measuring the average radiance (photon/sec/cm^2/sr) of the luciferase-expressing tumor after injection of luciferin (150 mg/mouse using an IVIS system. After four courses of administration, the average radiance of the luciferase-expressing tumor and the body weight were evaluated (FIG. 48).

The test system of data set [8] is PC3-Luc2-PSMA+/ANXA1-positive cells. Briefly: Cytotoxicity (Cell Counting Kit-8) to ANXA1-positive PC3 cells. The class given is cell-based, human. The protocol: The cell viability was analyzed by Cell Counting Kit-8 (Dojindo), and the IC50 value was calculated (FIG. 40).
The subject of data set [9] is MBT2 and PC3-PSMA+ cells. Briefly: Uptake of ^10BSH in cancer cells by immunofluorescent staining with anti-^10BSH antibody. The class given is cell-based. Conditions: 50 µg added, 24 hours; compared with ^10BSH. Here is the method:
Uptake of ^10BSH-dhp7 in cancer cells was examined. 50 µg of ^10BSH-dhp7 or ^10BSH was added to MBT2 and PC3-PSMA+ cells seeded in a 3.5 cm culture dish (ib81156) manufactured by ibidi. 24 hours later, the cells were washed with PBS three times and then fixed with 4% PFA. After blocking with 3% BSA BD PhosFlow perm/wash buffer I (BD557885), 3% BSA BD PhosFlow perm/wash buffer I containing 1 µg/ml of the rabbit anti-^10BSH polyclonal antibody #52 was reacted at room temperature for one hour with ^10BSH taken up into the cells. After washing with PBS three times, it was reacted at room temperature for one hour with an APC-labeled anti-mouse IgG antibody (diluted 1000-fold) to detect the rabbit anti-^10BSH polyclonal antibody, and washed with PBS three times. Then, intracellular uptake of ^10BSH-dhp7 or ^10BSH in each cancer cell was examined by a fluorescence microscope (Keyence BZ9000) (FIG. 16).

The test system of data set [10] is mouse bladder cancer cells MBT2. Briefly: Boron neutron capture therapy (BNCT) in mouse bladder cancer model. The class given is in vivo, C3H/HeN mice. The protocol:
Since it was found in Example 6 that ^10BSH-dhp7 is taken up into Anxa1-positive cancer cells, boron neutron capture therapy by ^10BSH-dhp7 was attempted in a mouse bladder cancer model.
Starting from 48 hours after the administration, the tumor area was irradiated with thermal neutrons at 20 MeV 100 mA for 60 minutes using an accelerator manufactured by Sumitomo Heavy Industries (dose: 1.63 × 10^12/cm^2, average 0.23 Gy). One week after the irradiation, second BNCT treatment was performed. 24 hours prior to irradiation with thermal neutrons, 20 mg/kg (0.4 mg/20 g mouse) of ^10BSH-dhp7 was intraperitoneally administered. Irradiation with thermal neutrons was then performed. One week after the second irradiation, mice of each group were sacrificed. The tumor size and the tumor weight were measured, and pathological analysis of the resected tissue was performed to verify the antitumor effect. The tumor volume was measured from the start of administration until sacrifice by the calculation formula: V = long axis × short axis × short axis/2) (FIG. 17).

“biotin-dhp7 (D-amino acid peptide hpnevrs modified with biotin at the N-terminus)”: in data set [1], the Kd stood at 480 nM.

The compound “biotin-dqy7 (D-amino acid peptide qyatnlk modified with biotin at the N-terminus)” had a Kd in data set [1] of 990 nM.

As for “IFLLWQRK(EMCS-^10BSH)RR (EMCS-10BSH boron cluster; C-terminal RR) [IF7-^10BSH, reference compound]”, in data set [2], the “state in physiological saline” value is “poorly soluble and cloudy”.

As for “biotin-dst7 (D-amino acid peptide stsrntl modified with biotin at the N-terminus)”, the Kd in [1] is 720 nM.

Take c(MI-Cy7.5)-vc-hpnevrs [Cy7.5-vc-dhp7]: in [3], the “start of selective accumulation in the tumor tissue” value was 60 min, the “time of maximum tumor accumulation” value was in the range of 2 to 24 h and the “tumor accumulation maintained until” value amounted to 96 h. In addition, in data set [4], the “start of selective accumulation in the tumor tissue” value amounted to 60 min and the “tumor accumulation maintained until” value came to 96 h.

`CC[C@H](C)[C@@H]([C@@H](CC(=O)N1CCC[C@H]1[C@H](OC)[C@@H](C)C(=O)N[C@H](C)[C@@H](O)c1ccccc1)OC)N(C)C(=O)[C@@H](NC(=O)[C@H](C(C)C)N(C)C(=O)OCc1ccc(NC(=O)[C@H](CCCNC(N)=O)NC(=O)[C@@H](NC(=O)CCCCCN2C(=O)C=CC2=O)C(C)C)cc1)C(C)C` [vcMMAE] ({Hexanoyl(6-maleimido)}-V[Cit][PABC][NMeV]V[Dil][Dolaproine]-X1): the “white blood cell count” value in data set [5] was “reduced”. The “average radiance of luciferase-expressing tumor” value in data set [6] and in data set [7] was “tended to increase” in each case. Further, the “in-vitro sensitivity of Anxa1-positive cells relative to ANXA1-negative cells” value in [8] is “twice”.

As for “EMCS-^10BSH-hpnevrs (HPNEVRS; not fully specified (some residues, N-terminus); printed as EMCS-^10BSH-hpnevrs) [^10BSH-dhp7]”, the “intracellular uptake of ^10BSH (fluorescence)” value in [9] is “dotted intracellular fluorescence was observed”. Also, the “tumor reduction effect, non-BNCT treatment group” value in data set [10] (20 mg/kg intraperitoneal, no irradiation) is given as “no tumor reduction effect was observed”. In data set [10] (20 mg/kg intraperitoneal, two thermal neutron irradiations, one week after the second irradiation), the “tumor reduction effect, BNCT treatment group” value is reported as “tumors almost completely disappeared”. Moreover, the “residual tumors in pathological analysis of resected tissues” value in data set [10] (administration and BNCT treatment group) is reported as “no residual tumors in four of eight cases”.
